This note sets out measurements from patent US20220267460A1.

One test has as its target FcγRIIIa (UniProt P08637). Description: cell-based or functional assay.
The target of test [1] is human FcγRIIa-H variant (Histidine at amino acid 131) (human) (UniProt P12318). Description: cell-based or functional assay.
Chain of human FcγRIIa-H variant (Histidine at amino acid 131) (human) (P12318 34-317, change not shown): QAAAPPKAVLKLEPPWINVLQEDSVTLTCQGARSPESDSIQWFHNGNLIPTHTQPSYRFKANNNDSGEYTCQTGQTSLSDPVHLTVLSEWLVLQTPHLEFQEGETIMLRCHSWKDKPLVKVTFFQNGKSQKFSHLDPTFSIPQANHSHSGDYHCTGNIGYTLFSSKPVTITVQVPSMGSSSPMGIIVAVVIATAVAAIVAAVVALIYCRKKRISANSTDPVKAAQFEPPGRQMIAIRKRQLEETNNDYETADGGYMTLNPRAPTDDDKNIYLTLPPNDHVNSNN

Chain of FcγRIIIa (P08637 17-254 F176V limits assumed): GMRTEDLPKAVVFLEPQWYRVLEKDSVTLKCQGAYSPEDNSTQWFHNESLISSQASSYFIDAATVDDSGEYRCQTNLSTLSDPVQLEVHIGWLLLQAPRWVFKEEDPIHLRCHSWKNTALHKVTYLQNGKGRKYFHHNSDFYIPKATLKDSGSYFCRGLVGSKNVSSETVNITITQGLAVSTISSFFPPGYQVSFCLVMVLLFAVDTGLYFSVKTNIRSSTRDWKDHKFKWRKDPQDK

In the test with FcγRIIIa, “avelumab (Bavencio) monoclonal antibody, fucosylated” yielded an EC50 (nM) Mean, FcγRIIIa signaling in ADCC reporter assay (HEK-PD-L1 target cells, Jurkat/FcγRIIIa effector cells, luciferase) of 0.049 nM. In test [1], “obinutuzumab monoclonal antibody, fucosylated” gave an EC50 (nM) Mean, FcγRIIa signaling in ADCP reporter assay (Raji target cells, Jurkat/FcγRIIa-H effector cells, luciferase) of 7.1 nM. The EC50 (nM) Mean, FcγRIIIa signaling in ADCC reporter assay (Raji target cells, Jurkat/FcγRIIIa effector cells, luciferase) with FcγRIIIa is 0.08 nM.
